Experimental data from the domain aggregation screens of Martell et al. (2025).

assay: soluble fraction after stress (log2 fold change); higher = more stays soluble; pooled small domains, quantitative proteomics; conditions: stress: 50 degC
Procedure, shortened: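 Quantitative proteomics served as the high-throughput read-out for pooled custom libraries of small protein domains. Each was stressed at 50°C. Aggregation propensity is expressed as the base-two log fold change in soluble protein after stress. A higher value means a larger share of the protein remains in solution.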

Row | Sequence | soluble fraction (log2)
1 | HMKFTSEKDISLLELVKAKMGFVSNTKARNVIKIGQIMVSGKVIKIPSTLIKPGTEVELARRV | -1.66
2 | HMLAQDVIVKQDGGTILSKVLEIGTQEIAYKKWNSQDGPVYKIAKDQVLSVNYQNGEVDRFA | 0.00732
3 | HMGKPTPASQVATRWLTGNLPESLPVAGPAPSFEALARTVSTDLHPRSVLQELVRLGVAEEANGVVTLRRQ | -0.00643
4 | HMTAMDTQQKKLIIMYHDIHRLRNVEHFTIQRIADHLLLNFRTVKKFLEMTQEEFDKFSENRW | -3.01
5 | HMSVSEAELAEKYHADDLEALKSGKLHEFQENLIDRNGKKYTVQTMKDILTLSDGTRLLLGIGLD | 0.174
6 | HMNESEALIARIENLPPIEDLTEKHAEEVKALMTVYSKLKMSDRILVTNYGVLKKDFDALVKKGFLTNED | 0.0784
7 | HMIHANGLTDRQEMILEFIRSYISENNYPPSVREIGKGVGLASSASVHNNMKKLASLGFLNWDTD | -1.25
8 | HMIAGHLQIKNDYYYMVLSYTDSDGKRKQPWIPTGLPMKGNKKRAEKMLIETRQTYVPPVSSG | -3.27
9 | HMQNWFADPKFEMFEDYGDAQSFYDTETKNIYVVMAEYGQKGSNTIQEITPDSEEYIPNYEKYKEYMENK | -0.387
10 | HMIIMVNLYQIWDKEVQGLDSVGAKPEQIEARRQAIAAHFESKARQAGMSSKDIYATLDNFDTYSRQKTS | -2.28
11 | HMGLVQQSAQKSDDAAKLMAANNLNAAQSKYQLPDEAEKDFFTFAFERGYAVEDFVDAGLVDKIMADFSA | -0.078
12 | HMNYKNAIGQVGSVYVPIPPNREGLGQIEVKVQSRVSTVRAVSDHSERLENRVAVRVIELVDDRTLLVEKL | -0.839
13 | HMKQNVEAVIKERAIEKARAQVKAVSTHMALEAQSLSKEQLEFEIERIAAQIIDKMPSDFWND | -0.386
14 | HMGDFLLTPHRGRSADFVIGNPPYIRLEDVPNDISDAYRAEYASMPGRADIHVGFYEKGLDL | -0.142
15 | HMGIRDIHITVNGESLKLSKKQNYIFVDIFDFYPFDLSILGGSKLITTINGEQAEFTSPLKDGDVVELYWK | -0.61
16 | HMISLNEDQKLAILNEWNQRPDDPPFIKELIELVFPDIPEEAKTGRSRYGIAIKKFLAEKSLQAKV | -0.305
17 | HMTVKVPDLRGKTLAEMQRILDDAGLKYEINDSTFSRTAIPGTVREVIPAPGSEVKLGRILFIAINGF | -0.914
18 | HMTDVRFISIPIQKEHPWNRKLVSELNLPPGTLLVFLRRTGENIVPNGKTMIQEGDVLVLGASAYR | -0.295
19 | HMNVTIGESIKNVINHYGTPIYSYNPNNQEKYYEFHTNKGVLVVTAIGKKNTGYVTRVSMTY | -1.18
20 | HMNKKLEMKIEQLDLSVRLFNSLKRSGIYTVAQIIKLTEEDVMRFRSLGRKSFKELKEKLSEHGLEFE | -2.15
21 | HMPADHYEVLGIARDADAAEVKRAYRRLARESHPDANHGDSGAEVRFKAVSAAYEVLSDPERRARYDRFGH | -0.00211
22 | HMKSFDERQAALNELAKVIEGTGRKAEQDAEFRREQNQLMIDKIDEQLKGDLTDSQREELKKERAALARK | 0.153
23 | HMEELPVLHLKHVVVEGESLWKLAEQYLNDGTRWQEIYMLNRENISNPDLIREGQELNIQFLQGE | -0.574
24 | HMDGEMRRKRILQLLSEQTKPLSGTALAKQFGVSRQVIVQDIALLKSKEPAIISTYRGYVLGR | -0.607
25 | HMTTPAAISKIKKLEEAKRLLATTTYSMKEIAVKLKYKSHTHFGMDFKNNTGMTPAEYRKAIKAKREKQMN | -0.0571

Row | Sequence | soluble fraction (log2)
26 | HMSERQTGTVKWFNNAKGFGFITMADRPDDIFVHFRAIQGDGYRSLNEGEEVEFSLVEGPKGLQAEEVTK | 0.037
27 | HMPVSRMRARHEALARGVMGIHAGGFSAVYGYRKVWHGLIGKGWDPGEVGRDQVMNIMRGLGMQGVRR | 0.266
28 | HMIAIGDDARLDDAARFFRIAEDSYAAGDYRKSKENYIEARKLYAELGDHEKVNLINSKISAIDSIT | 0.0633
29 | HMSMPTITLQHYKRGSHYYASIIETFRDPVTRKNSSRTLEALGDISEKMKEDPNYLQSLKDRVKALRSD | -0.656
30 | HMAPTGTDRQTPHTRDELYLVLSGTGTFVNGDARHPFGPGDALFVPAGAEHRFEDFSDDFRTWVVFYGAEG | -0.162
31 | HMFAADIGVGIVDADSLRVRSEPSTGAPIVTSLLRGTQVTVQEKLDGWYRITYNDVSGFVSAEYLIFTADE | -0.241
32 | HMRKIEDVLRLHAQGMSTRRIALATGVGKTTVIEYLRRAAVAGLSWPLPEGLDEEALERRVFPPPP | -1.45
33 | HMRGAIKMAEEQMAGHKKIGSISGTAPTQGELEKKFAMAAAQMGARYYVITGLSNNNYAFGNADIY | -0.316
34 | HMELEWENYSLAGEIKTTVMLYQNRRNGLPEEAKQKADALMKQLKQAVIENDAQKVEKIDDALTALLFE | -0.15
35 | HMDVSLVEQTQRDILEYISKNNSNAQLPKEQEFVGLLGVSRVVVREALSRLRALGIIETKRKKGTVVVVPE | -0.165
36 | HMADTSLDHLGVLVRHASDVDAWAEFFENRGVTLASQPRTHRDGARSFYVDDPDGNRVQVIYHPPI | -0.498
37 | HMQTTQQLIRNLRLKQAATLLADKRHSITEVATLTGFTHPTYFATAFREMFGVSPSEYMEQHI | -0.86
38 | HMVSTGIMVVDGRGSVLQHNEAALRQLGVEVLTFESQVKEKLASEDFSVRETTAMLNGKKVRIIAFSDIR | -1.62
39 | HMLPELIVTTKKGVTVTVTNGVITYSATSNGKATFTVPNYGKWTVSATINGTVISKVVDVTEAKQIPVLLG | 0.196
40 | HMDDFGERLRKLRVAQDLTQQQLGEKLGVVPSTIGKYEKVKDSYPSIEVLIKLSDFFSVSTDYLLKG | -1.88
41 | HMQILPAFLPENPELRARLANHSLEELTEILKQYKTLHNSTDVDTVKRAIRAIEIEEYYAVHPV | -0.777
42 | HMGTPEQVVVSSVLKETNEIVLKWPADGFMAKYKMDNLNLNFEPVHGQGVMGYFIGSRLIKLELV | -0.251
43 | HMISQLRGKVLGTDRDALVIDVGGVGFRVSATAGARALAGQSGNEARLFTEMVVREDSIDLFGF | 0.217
44 | HMGLQRLTVSPEDAGVRIDKYLAEQLPDITRSYLQKLLKDGSVQMNGKPVKASTKTAVGAVIALTIPEP | 0.0689
45 | HMSSFRDISGTVYVKASAANLRSEPNTSSLIVDTLYYGASLQRISTNDIWTKVKTGNGQIGFMDNSLFQT | -2.23
46 | HMPVSVAEQKQILAEALQERGHATFRELIENADNRMIVVGRFLALLELYRDGTVRFEQERALGELTIHWEE | -0.318
47 | HMLSVLKNVDVNSLSDDKIKTYWQQIQKSGYTLDEVEVLAEAQGISPLKIAAFKRRVQSLQQSLQT | 0.199
48 | HMSSGTAYATDAVNVRSGPGTSYTVLGYLSRGEKVTITGTVSNGWTQIQLPGNRLGYVSSAYLSASYPS | -0.259
49 | HMTSPRRLYALIVEHVGKDGVMHRSDVENVLAKVESEMDVDDLLDQLEINGTIIRRQDGTWQLL | -0.197
50 | HMGAVGISQKVTSLETAVLGKNFAKDPLIDRVARLEQTVLPKQAEANASLSLPERVSKLLEKVPIAAG | 0.223

Row | Sequence | soluble fraction (log2)
51 | HMYVTGETIRHLRTQRRMTQEQLAETLGVTGKAVSKWETGRGFPDMSLLEPLARALRISVPELLSGE | -0.614
52 | HMNSTGVYQRPDGFWEYRFTLSINGKKLPRRKSTDLMGNKLKTKREAIKAREEAIIALRTEKTI | -0.994
53 | HMSDGDFLQKIAEEILAQFPDKVKEYQKGKKGLIGFFMGELMKRSKGKADPKVATRILEEILSEKNGSS | 0.17
54 | HMEEQELQLIQFPIASGSAWAGKAVRELILPPETLLVMLIRGTETMIPKGDTMVQEGDTAVLSASAYRDD | -0.434
55 | HMGSGKGAAHTILGISADASDDEIKAAWRKLVQENHPDKLVSQGLPDEFVQAATDRLRLINTAYQSMLNRP | -0.0378
56 | HMNTGTTISYSDFRDRVASGTVKEVQISDDRITGVLKNDETFNTVPVGNDSGLTKLLDDNGVTYSGTP | 0.174
57 | HMKESFAQLFSLLTPTEQKVAALISQGFSNKDIAAKMFISLSTVKTHTNHIFAKMGVANRNALVAKVNN | -1.08
58 | HMGPPAVGSKLQDARKAQQLSLDELSKRAGVSKSMLSEVERNQANPTVGVLWRLATALGISLTDLLG | -0.374
59 | HMDIPGITAVKPQAAFYMFPKIDVKKFNIVNDEKFALDLLQDKKILIVQGSGFNWKQPDHFRVV | -0.103
60 | HMRQSKMREAILAAVSAQKLEISDLHVWRIGEQRYAAIIGLATTQAESVSALRDSLAQMDKLVHLTIDQ | -1.89
61 | HMVVRRLPFGFSKRFGVLVVPGTSNPVELLYREDASMQSLLEARRVVAQPVAFKKTDVESFNAQLARAHEN | -1.23
62 | HMKIELTDQQKSLVVDEWNKGEANPPSLLQLIRLAYPDQPHLDGRSKEGKAVKAFLATRDINPLA | 0.0239
63 | HMGSIGAMLSSPELYGKLATNPATRGFLSQPDFIAMLTDVQKNPDKFGSYMSDPRMMQVLSVALG | 0.118
64 | HMGEAIPVPDLKHKALTDAEHLVHELGLEIQVVDTGYVKSLPADYILGQSLAPGEKVKSGHIIYVTINSP | -0.0167
65 | HMSNRDNPVVLDFKKVKSTEQLDNILEEYIRENFEGYTVKGRMFSSDEGKFIIALALKDDDGKRALVYFDV | -0.635
66 | HMQINLKQSSDEELVKIITVQVHHYEPHTVKAAEAEIERRGIDKMRMAHLVKKVAQENTAVQEIQD | 0.18
67 | HMGVRDIRIFERNNSFFVNAEIRGEAQLSVPITRTDYQLFKENKIDALSLVEKYYAEELNASNEMK | -0.164
68 | HMTDPVLYEERDDIAIITINRPEKKNTLTDAVIQGIADGIDAATKSADVVAVVLRGAGDTLTAGYDLTA | -0.132
69 | HMGESVQVPSYVGMGFREAARKARARDFGVAVSDSIYVPGKPPGEIIAQDPKAESRVKEGRTIYFTVAK | 0.0425
70 | HMDYYKILGLSTSATLDQIKKAFRQLAIEFHPDKNPNNPTAEDKFQRISEAYAVLSNPEKRAEYDRSY | -0.0923
71 | HMPPPVERAIRKLGHDLSLARRRRRISQDSMAQRMGASVSTVRRIEKGDPRIPIHFIARAMMILGDLKAL | -0.0422
72 | HMKRMSKKQLSAVIEKYFSSQPGVTLTLKDIFRNLHLDTHPLKMIALDILEEMSWDDVIMKVSDTSYALNT | 0.281
73 | HMRKTYHVDAYQDDKWWVLQVQEMPNAISQVKSLDQADEWIREAINIVSNEPEDSFDVVIIPV | -0.612
74 | HMFEARNTTFSEDGKTITETYGVKRIETEFVSDSTIVQKLYDNDVLTKTKTITFSADGLSIKEDV | 0.0154
75 | HMDSNPLSEREQEVLQLVAKGASNQTIAEQLFLSNGTIRNYMTAIFNKLNANNRTDAVRIARENGW | -0.144
